Data from patent publication US20150284436A1 (published 2015).

B3: human TRX (thioredoxin), wild-type, tag-free (enzyme)
chain: MVKQIESKTAFQEALDAAGDKLVVVDFSATWCGPCKMIKPFFHSLSEKYSNVIFLEVDVDDCQDVASECEVKCMPTFQFFKKGQKVGEFSGANKEKLEATINELV
notes: Expressed tag-free under the T7 promoter together with TXNIP constructs in E. coli; also called native TRX; endogenous TRX
B5: N-TXNIP (N-terminal domain of TXNIP, residues 3-156) (other)
chain: MFKKIKSFEVVFNDPEKVYGSGERVAGRVIVEVCEVTRVKAVRILACGVAKVLWMQGSQQCKQTSEYLRYEDTLLLEDQPTGENEMVIMRPGNKYEYKFGFELPQGPLGTSFKGKYGCVDYWVKAFLDRPSQPTQETKKNFEVVDLVDVNTPDL
notes: The NMR sample was 15N-labeled and its hexahistidine-tag was removed by rTEV; In the Ni-NTA co-purification it carried the N-terminal hexahistidine-tag; also called N-terminal TXNIP; ^15N-labeled N-TXNIP

How the values were obtained:
TRX(C35A), tag-free [1] = target: T1, TRX(C35A), tag-free (human, UniProt P10599 1-105); assay: co-crystal structure, X-ray, 2.7 Å
T1 construct: Human TRX with alanine for cysteine at position 35; Co-expressed tag-free with T-TXNIP mutants or N-TXNIP; also called modified TRX protein
T1 chain: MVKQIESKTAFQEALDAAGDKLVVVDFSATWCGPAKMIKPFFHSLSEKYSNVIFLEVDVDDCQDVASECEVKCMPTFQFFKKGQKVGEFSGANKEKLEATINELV

[2] = target: B3; assay: GST pull-down from transfected HEK 293T lysates, immunoblot
TRX(C35A), tag-free [3] = target: T1, TRX(C35A), tag-free; assay: size-exclusion chromatography
Procedure: A Superdex™ 200 10/300 GL gel filtration column (GE Healthcare) installed on an Acta purifier FPLC system (GE Healthcare) was equilibrated with 50 mM Tris-HCl (pH 8.0), 500 mM NaCl, and 10% glycerol at a flow rate of 0.4 ml/min at room temperature. Purified TRX-T-TXNIP and its mutants were injected onto the column. Ovalbumin was used as a molecular weight standard.
The structures of COM1 and COM2 are essentially identical, each contains two heterodimeric complexes of TRX and T-TXNIP in an asymmetric unit, with a large interface between the two T-TXNIP molecules (FIGS. 5A and B). […] Thus, the interfaces between the T-TXNIP molecules in the crystal structures merely constitute large crystal contacts.

[4] = target: T2, T-TXNIP (TXNIP residues 3-317) (human, UniProt Q9H3M7 3-317); assay: GST pull-down from transfected HEK 293T lysates, immunoblot
T2 construct: In E. coli it was expressed with an N-terminal hexahistidine-tag that was removed by rTEV protease; also called native T-TXNIP; T-TXNIP(3-317)
T2 sequence: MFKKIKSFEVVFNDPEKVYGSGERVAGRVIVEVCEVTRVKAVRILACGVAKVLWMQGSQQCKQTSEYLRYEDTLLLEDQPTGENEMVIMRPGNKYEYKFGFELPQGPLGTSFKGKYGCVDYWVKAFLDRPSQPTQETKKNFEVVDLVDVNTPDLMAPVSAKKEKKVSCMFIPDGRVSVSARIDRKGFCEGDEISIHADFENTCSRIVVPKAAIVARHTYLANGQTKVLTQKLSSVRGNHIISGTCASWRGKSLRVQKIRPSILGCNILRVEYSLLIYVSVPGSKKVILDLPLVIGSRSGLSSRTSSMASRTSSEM

HA-tagged TXNIP = target: T3, HA-tagged TXNIP (human, UniProt Q9H3M7 1-391); assay: anti-FLAG agarose immunoprecipitation from HEK 293T lysates (50 mM iodoacetamide), Western blot
T3 construct: Expressed in HEK 293T cells
T3 sequence: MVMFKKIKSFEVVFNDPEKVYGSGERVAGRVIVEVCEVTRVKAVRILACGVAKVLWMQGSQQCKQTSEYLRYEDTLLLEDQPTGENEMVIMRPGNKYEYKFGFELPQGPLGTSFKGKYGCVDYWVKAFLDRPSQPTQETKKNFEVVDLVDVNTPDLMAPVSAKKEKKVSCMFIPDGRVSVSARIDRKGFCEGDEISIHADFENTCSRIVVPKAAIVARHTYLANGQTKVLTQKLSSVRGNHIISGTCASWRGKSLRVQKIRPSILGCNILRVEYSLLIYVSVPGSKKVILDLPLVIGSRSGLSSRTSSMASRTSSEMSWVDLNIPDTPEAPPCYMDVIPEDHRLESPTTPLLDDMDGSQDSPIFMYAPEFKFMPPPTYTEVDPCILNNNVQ
Procedure: To test the in vivo interprotomer interaction between TXNIP molecules, HEK 293T cells were transfected with plasmids expressing HA-tagged-TXNIP and FLAG-tagged T-TXNIP. 24 hours later, the cells were harvested and lysed in the 50 mM iodoacetamide-containing buffer [0.5% Triton X-100, 150 mM NaCl, 10% glycerol, 1 mM NaF, 1 mM AEBSF, 2 μg/mL leupeptin, 5 μg/mL aprotinin and 20 mM HEPES (pH 7.2)]. After centrifugation at 16,000 rpm for 20 minutes, the supernatant was incubated with anti-FLAG M2 agarose (Sigma) at 4° C. for 12 hours. The immobilized proteins were collected by centrifugation and washed three times with the lysis buffer. The bound proteins were subjected to SDS-PAGE under reduced and non-reduced conditions. […] 24 hours later, the cells were harvested and lysed in the lysis buffer. After centrifugation at 16,000 g for 20 minutes, the supernatants were incubated at 4° C. for 12 hours with monoclonal anti-FLAG M2 agarose beads (Sigma) for immunoprecipitation, or with glutathione-conjugated sepharose beads (GE Healthcare) for pull-down assay. The immobilized proteins were collected by centrifugation and washed three times with lysis buffer. Bound proteins or WCLs were eluted by boiling in SDS sample buffer. […]

[5] = target: T4, TRX, wild-type, with C-terminal hexahistidine-tag (NMR sample) (human, UniProt P10599 1-105); assay: 1H-15N HSQC NMR titration of 15N-labeled N-TXNIP
T4 construct: also called unlabeled, reduced TRX; wild-type TRX; not shown: C-terminal hexahistidine-tag from pET21 vector
T4 sequence: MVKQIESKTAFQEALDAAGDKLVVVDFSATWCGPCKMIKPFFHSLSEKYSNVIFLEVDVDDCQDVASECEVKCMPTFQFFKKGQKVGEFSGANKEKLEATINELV
Procedure: (§1) NMR interaction experiments were carried out by recording ¹H-¹⁵N NMR HSQC spectra of ¹⁵N-labeled N-TXNIP upon addition of unlabeled TRX or its mutant, which was reduced with 5 mM DTT and dialyzed against 50 mM potassium phosphate (pH 6.6) prior to the interaction study to remove excess DTT.
(§2) The ¹H-¹⁵N HSQC spectra of all proteins were measured on a Bruker 900 MHz NMR spectrometer at the Korea Basic Science Institute (Ochang, Korea). The NMR measurements were performed using 0.3 mM ¹⁵N-labeled protein in 50 mM potassium phosphate (pH 6.6) containing 10% D₂O at 25° C. All NMR spectra were processed with Topspin 2.1 and analyzed with the program SPARKY 3.1.
To evaluate the involvement of N-TXNIP in the interaction of TXNIP with TRX, an NMR-titration experiment was performed by recording a series of ¹H-¹⁵N heteronuclear single quantum coherence (HSQC) spectra of ¹⁵N-labeled N-TXNIP after addition of unlabeled, reduced TRX.

[6] = target: T4, TRX, wild-type, with C-terminal …; assay: 1H-15N HSQC NMR
Procedure: as §1, §2
(§3) Further, TRX muteins were added and ¹H-¹⁵N HSQC spectra of ¹⁵N-labeled N-TXNIP were monitored to examine interaction between N-TXNIP and TRX. […] In contrast, C62A, C69A, and C73A mutants caused a chemical shift similar to the wild-type TRX (FIG. 12).

[7] = target: B5; assay: 1H-15N HSQC NMR of 15N-labeled N-TXNIP
Procedure: as §1, §2, §3

B1: T-TXNIP(C170S/C205S/C267S) (other)
chain: MFKKIKSFEVVFNDPEKVYGSGERVAGRVIVEVCEVTRVKAVRILACGVAKVLWMQGSQQCKQTSEYLRYEDTLLLEDQPTGENEMVIMRPGNKYEYKFGFELPQGPLGTSFKGKYGCVDYWVKAFLDRPSQPTQETKKNFEVVDLVDVNTPDLMAPVSAKKEKKVSSMFIPDGRVSVSARIDRKGFCEGDEISIHADFENTSSRIVVPKAAIVARHTYLANGQTKVLTQKLSSVRGNHIISGTCASWRGKSLRVQKIRPSILGSNILRVEYSLLIYVSVPGSKKVILDLPLVIGSRSGLSSRTSSMASRTSSEM
notes: 1; The N-terminal hexahistidine-tag was removed by rTEV protease; also called modified TXNIP protein of COM2
TRX(C35A), tag-free [1]
  binding result: binds

B2: T-TXNIP(C120S/C170S/C205S/C267S) (other)
chain: MFKKIKSFEVVFNDPEKVYGSGERVAGRVIVEVCEVTRVKAVRILACGVAKVLWMQGSQQCKQTSEYLRYEDTLLLEDQPTGENEMVIMRPGNKYEYKFGFELPQGPLGTSFKGKYGSVDYWVKAFLDRPSQPTQETKKNFEVVDLVDVNTPDLMAPVSAKKEKKVSSMFIPDGRVSVSARIDRKGFCEGDEISIHADFENTSSRIVVPKAAIVARHTYLANGQTKVLTQKLSSVRGNHIISGTCASWRGKSLRVQKIRPSILGSNILRVEYSLLIYVSVPGSKKVILDLPLVIGSRSGLSSRTSSMASRTSSEM
notes: 1; The N-terminal hexahistidine-tag was removed by rTEV protease; also called T-TXNIP(C120,170,205,267S); modified TXNIP protein of COM1
[2]
  binding result: binds
TRX(C35A), tag-free [3]
  binding result: binds

## B3
[4]
  binding result: binds

B4: FLAG-tagged T-TXNIP (other)
chain: MFKKIKSFEVVFNDPEKVYGSGERVAGRVIVEVCEVTRVKAVRILACGVAKVLWMQGSQQCKQTSEYLRYEDTLLLEDQPTGENEMVIMRPGNKYEYKFGFELPQGPLGTSFKGKYGCVDYWVKAFLDRPSQPTQETKKNFEVVDLVDVNTPDLMAPVSAKKEKKVSCMFIPDGRVSVSARIDRKGFCEGDEISIHADFENTCSRIVVPKAAIVARHTYLANGQTKVLTQKLSSVRGNHIISGTCASWRGKSLRVQKIRPSILGCNILRVEYSLLIYVSVPGSKKVILDLPLVIGSRSGLSSRTSSMASRTSSEM
notes: Expressed in HEK 293T cells
HA-tagged TXNIP
  binding result: binds

## B5
[5]
  binding result: binds

B6: N-TXNIP C63S mutant (^15N-labeled) (other)
chain: MFKKIKSFEVVFNDPEKVYGSGERVAGRVIVEVCEVTRVKAVRILACGVAKVLWMQGSQQSKQTSEYLRYEDTLLLEDQPTGENEMVIMRPGNKYEYKFGFELPQGPLGTSFKGKYGCVDYWVKAFLDRPSQPTQETKKNFEVVDLVDVNTPDL
[6]
  binding result: no binding

B7: N-TXNIP C120S mutant (^15N-labeled) (other)
chain: MFKKIKSFEVVFNDPEKVYGSGERVAGRVIVEVCEVTRVKAVRILACGVAKVLWMQGSQQCKQTSEYLRYEDTLLLEDQPTGENEMVIMRPGNKYEYKFGFELPQGPLGTSFKGKYGSVDYWVKAFLDRPSQPTQETKKNFEVVDLVDVNTPDL
[6]
  binding result: no binding

B8: TRX C62A mutant (NMR sample) (enzyme)
chain: MVKQIESKTAFQEALDAAGDKLVVVDFSATWCGPCKMIKPFFHSLSEKYSNVIFLEVDVDDAQDVASECEVKCMPTFQFFKKGQKVGEFSGANKEKLEATINELV
notes: not shown: C-terminal hexahistidine-tag from pET21 vector
[7]
  binding result: binds

B9: TRX C69A mutant (NMR sample) (enzyme)
chain: MVKQIESKTAFQEALDAAGDKLVVVDFSATWCGPCKMIKPFFHSLSEKYSNVIFLEVDVDDCQDVASEAEVKCMPTFQFFKKGQKVGEFSGANKEKLEATINELV
notes: as for B8
[7]
  binding result: binds

B10: TRX C73A mutant (NMR sample) (enzyme)
chain: MVKQIESKTAFQEALDAAGDKLVVVDFSATWCGPCKMIKPFFHSLSEKYSNVIFLEVDVDDCQDVASECEVKAMPTFQFFKKGQKVGEFSGANKEKLEATINELV
notes: as for B8
[7]
  binding result: binds
